In patent publication US20110118131A1 (published 2011):
Positions count from the first letter of the chain named. Numbers in names are those of the source.

Legend:
[1] = molecular target: T1, Ep-CAM (UniProt P16422 24-265, limits assumed); assay: Biacore, Fab periplasmic extract on immobilised Epcam
T1 sequence (looked up): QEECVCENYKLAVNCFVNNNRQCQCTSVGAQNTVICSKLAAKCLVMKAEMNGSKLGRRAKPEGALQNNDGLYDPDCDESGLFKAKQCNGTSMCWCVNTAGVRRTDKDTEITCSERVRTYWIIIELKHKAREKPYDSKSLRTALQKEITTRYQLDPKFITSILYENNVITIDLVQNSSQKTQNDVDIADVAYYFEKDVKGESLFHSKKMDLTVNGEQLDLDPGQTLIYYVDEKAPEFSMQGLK

[2] = molecular target: IL-1β (UniProt P01584 117-269); assay: Biacore, Fab periplasmic extract on IL-1β

B1: ING-1 Fab, heavy chain A102L (Fab, V domains shown)
VH: QIQLVQSGPELKKPGETVKISCKASGYTFTKYGMNWVKQAPGKGLKWMGWINTYTEEPTYGDDFKGRFAFSLETSASTANLQINNLKSEDTATYFCARFGSLVDYWGQGTSVTVSS
VL: DIVMTQAAFSNPVTLGTSGSISCRSSKSLLHSNGITYLYWYLQKPGQSPQLLIYQMSNLASGVPDRFSSSGSGTDFTLRISRVEAEDVGVYYCAQNLELPRTFGGGTKLEMKR
notes: Fab in periplasmic extract
B1: no binding [1].

B2: ING-1 Fab, heavy chain D104V (Fab, V domains shown)
VH: B1 VH with L102A, D104V
VL: B1 VL
notes: Fab in periplasmic extract
B2: no binding [1].

B3: ING-1 Fab, heavy chain D104T (Fab, V domains shown)
VH: B1 VH with L102A, D104T
VL: B1 VL
notes: Fab in periplasmic extract
B3: no binding [1].

B4: ING-1 Fab, heavy chain D104A (Fab, V domains shown)
VH: B1 VH with L102A, D104A
VL: B1 VL
notes: Fab in periplasmic extract
B4: no binding [1].

B5: ING-1 Fab, heavy chain D104P (Fab, V domains shown)
VH: B1 VH with L102A, D104P
VL: B1 VL
notes: Fab in periplasmic extract
B5: no binding [1].

B6: ING-1 Fab, heavy chain D104L (Fab, V domains shown)
VH: B1 VH with L102A, D104L
VL: B1 VL
notes: Fab in periplasmic extract
B6: no binding [1].

B7: XPA23 light chain D92P (Fab, V domains shown)
VH: EVQLLESGGGLVQPGGSLRLSCAASGFTFSKYFMFWVRQAPGKGLEWVSVISPSGGMTRYADSVKGRFTISRDNSKNTLYLQMNSLRAEDTAVYYCARVGYGGNSDYWGQGTLVTVSS
VL: DIQMTQSPSSVSASVGDRLTIICRASQDINRWLAWYQQTPGNAPKLLIHSATSLQSGVPSRFSGSGSGTDFTLTINSLQPEDFATYYCQQAPSFPLTFGGGTKVEIK
notes: Single light chain substitution; Fab in periplasmic extract; also called C5A (XPA23) D92P
B7: no binding [2].

B8: XPA23 light chain S93V (Fab, V domains shown)
VH: B7 VH
VL: B7 VL with P92D, S93V
notes: Single light chain substitution; Fab in periplasmic extract; also called C5A (XPA23) S93V
With B8 the “fold difference in affinity vs original” value [2] was 3.81 fold.

B9: XPA23 light chain L96T (Fab, V domains shown)
VH: B7 VH
VL: B7 VL with P92D, L96T
notes: Single light chain substitution; Fab in periplasmic extract; also called C5A (XPA23) L96T
With B9 the “fold difference in affinity vs original” value [2] was 0.06 fold.

B10: XPA23 light chain L96I (Fab, V domains shown)
VH: B7 VH
VL: B7 VL with P92D, L96I
notes: Single light chain substitution; Fab in periplasmic extract; also called C5A (XPA23) L96I
B10 was tested, and the “fold difference in affinity vs original” value [2] was 0.67 fold.

B11: XPA23 light chain S53G (Fab, V domains shown)
VH: B7 VH
VL: B7 VL with S53G, P92D
notes: Single light chain substitution; Fab in periplasmic extract; also called C5A (XPA23) S53G
For B11, the “fold difference in affinity vs original” value [2] was 1.03 fold.

B12: XPA23 light chain F94I (Fab, V domains shown)
VH: B7 VH
VL: B7 VL with P92D, F94I
notes: Single light chain substitution; Fab in periplasmic extract; also called C5A (XPA23) F94I
With B12 the “fold difference in affinity vs original” value [2] was 0.88 fold.

B13: XPA23 light chain F94T (Fab, V domains shown)
VH: B7 VH
VL: B7 VL with P92D, F94T
notes: Single light chain substitution; Fab in periplasmic extract; also called C5A (XPA23) F94T
B13: no binding [2].

B14: XPA23 light chain F94V (Fab, V domains shown)
VH: B7 VH
VL: B7 VL with P92D, F94V
notes: Single light chain substitution; Fab in periplasmic extract; also called C5A (XPA23) F94V
For B14, the “fold difference in affinity vs original” value [2] was 0.2 fold.

B15: XPA23 light chain P95T (Fab, V domains shown)
VH: B7 VH
VL: B7 VL with P92D, P95T
notes: Single light chain substitution; Fab in periplasmic extract; also called C5A (XPA23) P95T
B15: no binding [2].

B16: XPA23 light chain S93P (Fab, V domains shown)
VH: B7 VH
VL: B7 VL with P92D, S93P
notes: Single light chain substitution; Fab in periplasmic extract; also called C5A (XPA23) S93P
B16: no binding [2].

B17: XPA23 light chain P95I (Fab, V domains shown)
VH: B7 VH
VL: B7 VL with P92D, P95I
notes: Single light chain substitution; Fab in periplasmic extract; also called C5A (XPA23) P95I
B17: no binding [2].

B18: XPA23 light chain D92T (Fab, V domains shown)
VH: B7 VH
VL: B7 VL with P92T
notes: Single light chain substitution; Fab in periplasmic extract; also called C5A (XPA23) D92T
With B18 the “fold difference in affinity vs original” value [2] was 0.34 fold.

B19: XPA23 light chain P95L (Fab, V domains shown)
VH: B7 VH
VL: B7 VL with P92D, P95L
notes: Single light chain substitution; Fab in periplasmic extract; also called C5A (XPA23) P95L
B19: no binding [2].

B20: XPA23 light chain S93L (Fab, V domains shown)
VH: B7 VH
VL: B7 VL with P92D, S93L
notes: Single light chain substitution; Fab in periplasmic extract; also called C5A (XPA23) S93L
In the case of B20, the “fold difference in affinity vs original” value [2] is reported as 1.08 fold.

B21: XPA23 light chain D92V (Fab, V domains shown)
VH: B7 VH
VL: B7 VL with P92V
notes: Single light chain substitution; Fab in periplasmic extract; also called C5A (XPA23) D92V
B21: no binding [2].

B22: XPA23 light chain P95V (Fab, V domains shown)
VH: B7 VH
VL: B7 VL with P92D, P95V
notes: Single light chain substitution; Fab in periplasmic extract; also called C5A (XPA23) P95V
B22: no binding [2].

B23: XPA23 light chain S93T (Fab, V domains shown)
VH: B7 VH
VL: B7 VL with P92D, S93T
notes: Single light chain substitution; Fab in periplasmic extract; also called C5A (XPA23) S93T
In the case of B23, the “fold difference in affinity vs original” value [2] is reported as 1.47 fold.

B24: XPA23 light chain L96A (Fab, V domains shown)
VH: B7 VH
VL: B7 VL with P92D, L96A
notes: Single light chain substitution; Fab in periplasmic extract; also called C5A (XPA23) L96A
For B24, the “fold difference in affinity vs original” value [2] was 0.26 fold.

B25: XPA23 light chain L96P (Fab, V domains shown)
VH: B7 VH
VL: B7 VL with P92D, L96P
notes: Single light chain substitution; Fab in periplasmic extract; also called C5A (XPA23) L96P
B25: no binding [2].

B26: XPA23 light chain L96G (Fab, V domains shown)
VH: B7 VH
VL: B7 VL with P92D, L96G
notes: Single light chain substitution; Fab in periplasmic extract; also called C5A (XPA23) L96G
B26: no binding [2].

B27: XPA23 light chain S53L (Fab, V domains shown)
VH: B7 VH
VL: B7 VL with S53L, P92D
notes: Single light chain substitution; Fab in periplasmic extract; also called C5A (XPA23) S53L
In the case of B27, the “fold difference in affinity vs original” value [2] is reported as 0.99 fold.

B28: XPA23 light chain S53I (Fab, V domains shown)
VH: B7 VH
VL: B7 VL with S53I, P92D
notes: Single light chain substitution; Fab in periplasmic extract; also called C5A (XPA23) S53I
In the case of B28, the “fold difference in affinity vs original” value [2] is reported as 1.42 fold.

B29: XPA23 light chain S93I (Fab, V domains shown)
VH: B7 VH
VL: B7 VL with P92D, S93I
notes: Single light chain substitution; Fab in periplasmic extract; also called C5A (XPA23) S93I
In the case of B29, the “fold difference in affinity vs original” value [2] is reported as 1.35 fold.

B30: XPA23 light chain F94G (Fab, V domains shown)
VH: B7 VH
VL: B7 VL with P92D, F94G
notes: Single light chain substitution; Fab in periplasmic extract; also called C5A (XPA23) F94G
B30: no binding [2].

B31: XPA23 light chain S53P (Fab, V domains shown)
VH: B7 VH
VL: B7 VL with S53P, P92D
notes: Single light chain substitution; Fab in periplasmic extract; also called C5A (XPA23) S53P
For B31, the “fold difference in affinity vs original” value [2] was 4.92 fold.

B32: XPA23 light chain P95G (Fab, V domains shown)
VH: B7 VH
VL: B7 VL with P92D, P95G
notes: Single light chain substitution; Fab in periplasmic extract; also called C5A (XPA23) P95G
B32: no binding [2].

B33: XPA23 light chain F94L (Fab, V domains shown)
VH: B7 VH
VL: B7 VL with P92D, F94L
notes: Single light chain substitution; Fab in periplasmic extract; also called C5A (XPA23) F94L
B33 was tested, and the “fold difference in affinity vs original” value [2] was 0.55 fold.

B34: XPA23 light chain S53A (Fab, V domains shown)
VH: B7 VH
VL: B7 VL with S53A, P92D
notes: Single light chain substitution; Fab in periplasmic extract; also called C5A (XPA23) S53A
For B34, the “fold difference in affinity vs original” value [2] was 1.07 fold.

B35: XPA23 light chain P95A (Fab, V domains shown)
VH: B7 VH
VL: B7 VL with P92D, P95A
notes: Single light chain substitution; Fab in periplasmic extract; also called C5A (XPA23) P95A
B35 was tested, and the “fold difference in affinity vs original” value [2] was 3.83 fold.

B36: XPA23 light chain S93G (Fab, V domains shown)
VH: B7 VH
VL: B7 VL with P92D, S93G
notes: Single light chain substitution; Fab in periplasmic extract; also called C5A (XPA23) S93G
For B36, the “fold difference in affinity vs original” value [2] was 0.75 fold.

B37: XPA23 light chain F94A (Fab, V domains shown)
VH: B7 VH
VL: B7 VL with P92D, F94A
notes: Single light chain substitution; Fab in periplasmic extract; also called C5A (XPA23) F94A
B37: no binding [2].

B38: XPA23 light chain S93A (Fab, V domains shown)
VH: B7 VH
VL: B7 VL with P92D, S93A
notes: Single light chain substitution; Fab in periplasmic extract; also called C5A (XPA23) S93A
For B38, the “fold difference in affinity vs original” value [2] was 1.16 fold.

B39: XPA23 light chain S53V (Fab, V domains shown)
VH: B7 VH
VL: B7 VL with S53V, P92D
notes: Single light chain substitution; Fab in periplasmic extract; also called C5A (XPA23) S53V
With B39 the “fold difference in affinity vs original” value [2] was 1.42 fold.

B40: XPA23 light chain F94P (Fab, V domains shown)
VH: B7 VH
VL: B7 VL with P92D, F94P
notes: Single light chain substitution; Fab in periplasmic extract; also called C5A (XPA23) F94P
In the case of B40, the “fold difference in affinity vs original” value [2] is reported as 0.17 fold.
